Experimental data as given in patent publication US20170340751A1.

Key:
[1] = target: SIINFEKL/MHC-I complex on DC2.4 cells (mouse) (UniProt P01901); assay: flow cytometry of DC2.4 cells loaded with SIINFEKL peptide (positive control), PE-25.D1-16 at 0.6 ug/ml
[2] = target: SIINFEKL/MHC-I complex on DC2.4 cells (mouse) (UniProt P01901); assay: flow cytometry of DC2.4 cells incubated 13 h with OVA antigen fusion protein (SEQ ID NO: 3), PE-25.D1-16 at 0.6 ug/ml

percent of cells positively stained [1]: > 80%
percent of cells positively stained [2]: 17.6%
Substance: PE-labeled monoclonal antibody 25.D1-16
